{
  "source": "patent US7563882B2",
  "about": "“Polynucleotides encoding antibodies that bind to the C35 polypeptide” (University of Rochester, priority 2002, dated 2009)",
  "key": {"[1]": {"target": "HLA-B*0702 (Homo sapiens, UniProt P01889)", "experiment": "Fluorescence polarization competition for MHC-peptide binding", "conditions": "soluble HLA-B*0702, fluorescent labeled binding standard", "procedure": "A similar analysis was conducted with C35 peptides that bind to soluble HLA-B*0702 employing a fluorescent labeled HLA-B*0702 binding standard and suitable relevant and irrelevant peptides to calibrate inhibition of binding by test peptides. Note that these inhibition values are sensitive to the choice and concentration of both MHC molecule and specific fluorescent peptides under the same assay conditions."}, "[2]": {"tested_on": "EBV-B target cells", "experiment": "C35 peptide mediated T cell lysis of peptide pulsed EBV-B cells (Table 10)", "assay_type": "cell-based, human"}, "[3]": {"tested_on": "T cell line 4", "assay_type": "cell-based, human"}, "[4]": {"target": "T1, C35 (Homo sapiens, UniProt Q9BRT3)", "T1 construct": "from tissue; host or cells: paraffin sections of primary human breast tumor (invasive breast adenocarcinoma, patient 01A6) and normal breast tissue", "T1 sequence (Q9BRT3 1-115)": "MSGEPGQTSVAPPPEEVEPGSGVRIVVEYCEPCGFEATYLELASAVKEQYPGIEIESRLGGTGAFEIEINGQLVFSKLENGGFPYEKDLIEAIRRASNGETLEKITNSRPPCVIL", "experiment": "Immunohistochemical staining of primary breast tumor sections", "assay_type": "binding", "conditions": "paraffin sections, affinity purified antibody", "source_text": "Antibody was affinity purified from 1F2 hybridoma supernatant. Paraffin-embedded slides were deparaffinized with xylene and rehydrated through graded alcohols. Target retrieval was achieved through steam and high pH treatment. […] Slides were counterstained with hematoxylin, dehydrated with EtOH/xylene, and coverslipped."}, "[5]": {"target": "T2, hC35 protein (Homo sapiens, UniProt Q9BRT3)", "T2 construct": "made in house; host or cells: E. coli", "T2 sequence (Q9BRT3 1-115)": "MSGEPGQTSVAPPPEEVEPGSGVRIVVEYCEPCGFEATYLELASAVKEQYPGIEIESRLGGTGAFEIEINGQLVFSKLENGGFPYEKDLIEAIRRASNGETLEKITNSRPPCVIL", "experiment": "Western Blot immunodetection with hybridoma supernatants", "assay_type": "binding", "conditions": "100 ng purified recombinant C35 protein or control β-galactosidase per lane", "procedure": "Western Blot Immunodetection was performed with supernatants from selected hybridoma clones. […] In these experiments, 100 ng of purified recombinant C35 protein or control β-galactosidase protein was loaded in each lane of an 18% SDS polyacrylamide gel. Gels were transferred to PVDF membrane, as is well known to those practiced in the art. Membranes were blocked with Tris buffered saline (TBS), including Tween-20 and 5% non-fat dry milk. Each blot was incubated with various dilutions of hybridoma supernatants as the primary antibody, followed by incubation with a secondary antibody, goat anti-mouse IgG conjugated to HRP, and detected with the chemiluminescent substrate, ECL. Similar results were obtained with 11B10 (not shown)."}},
  "data": [
    {"molecule": "NSRPPCVIL [N107 to L115]", "values": [
      {"measurement": "% Inhibition", "setting": "[1]", "value": 68.2, "unit": "%"}
    ]},
    {"molecule": "ITNSRPPCV [105-113]", "values": [
      {"measurement": "% Inhibition", "setting": "[1]", "value": 45.2, "unit": "%"}
    ]},
    {"molecule": "KLENGGFPY [peptide 77-85]", "values": [
      {"measurement": "% Lysis EBV-B cell Target", "setting": "[2]; T cell clone #46, donor (A2, A3; B18, B44), target pulsed with peptide", "value": 97.1, "unit": "%"},
      {"measurement": "lytic activity on EBV-B cells pulsed with peptide", "setting": "[2]; T cell clones from donor with A2, A3, B18, B44 HLA haplotypes", "value": 97.1, "unit": "%"},
      {"measurement": "GM-CSF stimulation", "setting": "[3]", "value": "greatest stimulation"}
    ]},
    {"molecule": "1F2: C35-specific monoclonal antibody; Kappa and IgG1 V-genes SEQ ID NOs:148 and 149 (antibody, V domains shown, cDNA of 1E11/1F2 V-genes (IgG1); cDNA of 1E11/1F2 V-genes (Kappa)) VH: MKVLSLLYLLTAIPGILSDVQLQESGPGLVKPSQSLSLTCSVTGYSITSGYFWNWIRQFPGNKLEWMGYISYDGSNNSNPSLKNRISFTRDTSKNQFFLKFNSVTTDDSAAYYCTRGTTGFAYWGQGTLVTVSA VL: MDFQVQIFSFLLISASVRMSRGQIVLTQSPAIMSASPGEKVTISCSASSSVSYMNWYQQKPGSSPKPWIYHTSNLASGVPARFSGSGSGTSYSLTISSMEAEDAATYYCQQYHSYPPTFGGGTKLEIK", "values": [
      {"measurement": "immunohistochemical staining of human breast tumors", "setting": "[4]", "value": "can detect high levels of endogenous C35 expression"},
      {"measurement": "immunohistochemical staining of normal breast tissue", "setting": "[4]", "value": "little or no staining"},
      {"measurement": "reactivity with hC35 protein in Western Blot", "setting": "[5]", "value": "reacted specifically"}
    ]}
  ]
}
